Where two headings read alike, the source gives them in different places.
Key:
[1] = biological target: microtubule (tubulin) (Sus scrofa) (UniProt Q2XVP4); conditions: cited from earlier work
[2] = biological target: microtubule (tubulin) (Sus scrofa) (UniProt Q2XVP4); conditions: cited from earlier work; remark: listed apart in the source
[3] = biological target: microtubule (tubulin) (Sus scrofa) (UniProt Q2XVP4); conditions: cited from earlier work; remark: listed apart in the source
[4] = biological target: paclitaxel-stabilised microtubules (polymerised αβ-tubulin) (bovine) (UniProt Q6B856); experiment: co-sedimentation; ADP state (1 mM ADP); 2.5 μM MKLP2-MD with 0–10 μM polymerised tubulin (paclitaxel-stabilised MTs), BRB80 plus 25 mM NaCl, 25°C, 100,000 × g; quadratic fit assuming 1:1 motor:tubulin dimer; apparent
[5] = biological target: paclitaxel-stabilised microtubules (polymerised αβ-tubulin) (bovine) (UniProt Q6B856); experiment: co-sedimentation; no nucleotide (NN, apyrase-treated); 2.5 μM MKLP2-MD with 0–10 μM polymerised tubulin (paclitaxel-stabilised MTs), BRB80 plus 25 mM NaCl, 25°C, 100,000 × g; quadratic fit assuming 1:1 motor:tubulin dimer; apparent
[6] = biological target: paclitaxel-stabilised microtubules (polymerised αβ-tubulin) (bovine) (UniProt Q6B856); experiment: co-sedimentation; AMPPNP state (1 mM nucleotide); 2.5 μM MKLP2-MD with 0–10 μM polymerised tubulin (paclitaxel-stabilised MTs), BRB80 plus 25 mM NaCl, 25°C, 100,000 × g; quadratic fit assuming 1:1 motor:tubulin dimer; apparent
[7] = biological target: paclitaxel-stabilised microtubules (polymerised αβ-tubulin) (bovine) (UniProt Q6B856); experiment: co-sedimentation; ADP.AlFx state (1 mM nucleotide); 2.5 μM MKLP2-MD with 0–10 μM polymerised tubulin (paclitaxel-stabilised MTs), BRB80 plus 25 mM NaCl, 25°C, 100,000 × g; quadratic fit assuming 1:1 motor:tubulin dimer; apparent
[8] = biological target: paclitaxel-stabilised microtubules (polymerised αβ-tubulin) (bovine) (UniProt Q6B856)
[9] = biological target: paclitaxel-stabilised microtubules (polymerised αβ-tubulin) (bovine) (UniProt Q6B856); remark: listed apart in the source

For “Kin3 (Kif1a) motor domain (from UniProt P33173)”, the Kd [1] is given as 4.2 nM, the Kd [2] is given as 5.9 nM and the Kd [3] is given as 6.8 nM.

B1: MKLP2 motor domain, construct 25–520 (domain or fragment)
chain: ESTAADLRSVVRKDLLSDCSVISASLEDKQALLEDTSEKVKVYLRIRPFLTSELDRQEDQGCVCIENTETLVLQAPKDSFALKSNERGVGQATHKFTFSQIFGPEVGQVAFFNLTMKEMVKDVLKGQNWLIYTYGVTNSGKTYTIQGTSKDAGILPQSLALIFNSLQGQLHPTPDLKPLLSNEVIWLDSKQIRQEEMKKLSLLIGGLQEEELSTSVKKRVHTESRIGASNSFDSGVAGLSSTSQFTSSSQLDETSQLWAQPDTVPVSVPADIRFSVWISFFEIYNELLYDLLEPPSHQHKRQTLRLCEDQNGNPYVKDLNWIHVRDVEEAWKLLKVGRKNQSFASTHMNQQSSRSHSIFSIRILHLQGEGDIVPKISELSLCDLAGSERCKHQKSGERLKEAGNINTSLHTLGRCIAALRQNQQNRSKQNLIPFRDSKLTRVFQGFFTGRGRSCMIVNVNPCASTYDETLHAAKFSALASQLVHAPPVHLGIPSLH
For B1, the Kd [4] was 363 nM, the Kd [5] was 43 nM and the Kd [6] was 43 nM. For the same molecule, the Kd [7] was 355 nM and the MT-stimulated steady-state ATPase, K0.5,MT (Michaelis Menten fit of velocity against [tubulin]) [8] was 1.07 µM.

B2: MKLP2 motor domain, construct 1–520 (domain or fragment)
chain: MSHRILSPPAGLLSDEDVVDSPILESTAADLRSVVRKDLLSDCSVISASLEDKQALLEDTSEKVKVYLRIRPFLTSELDRQEDQGCVCIENTETLVLQAPKDSFALKSNERGVGQATHKFTFSQIFGPEVGQVAFFNLTMKEMVKDVLKGQNWLIYTYGVTNSGKTYTIQGTSKDAGILPQSLALIFNSLQGQLHPTPDLKPLLSNEVIWLDSKQIRQEEMKKLSLLIGGLQEEELSTSVKKRVHTESRIGASNSFDSGVAGLSSTSQFTSSSQLDETSQLWAQPDTVPVSVPADIRFSVWISFFEIYNELLYDLLEPPSHQHKRQTLRLCEDQNGNPYVKDLNWIHVRDVEEAWKLLKVGRKNQSFASTHMNQQSSRSHSIFSIRILHLQGEGDIVPKISELSLCDLAGSERCKHQKSGERLKEAGNINTSLHTLGRCIAALRQNQQNRSKQNLIPFRDSKLTRVFQGFFTGRGRSCMIVNVNPCASTYDETLHAAKFSALASQLVHAPPVHLGIPSLH
Work on B2 yielded an MT-stimulated steady-state ATPase, K0.5,MT (Michaelis Menten fit of velocity against [tubulin]) [9] of 0.93 µM.

Source: publication PMC5602324
